Laboratory results: article PMC3097237, “Exploiting Nucleotide Composition to Engineer Promoters”

T1: TFIIB (UniProt Q00403)
T1 sequence: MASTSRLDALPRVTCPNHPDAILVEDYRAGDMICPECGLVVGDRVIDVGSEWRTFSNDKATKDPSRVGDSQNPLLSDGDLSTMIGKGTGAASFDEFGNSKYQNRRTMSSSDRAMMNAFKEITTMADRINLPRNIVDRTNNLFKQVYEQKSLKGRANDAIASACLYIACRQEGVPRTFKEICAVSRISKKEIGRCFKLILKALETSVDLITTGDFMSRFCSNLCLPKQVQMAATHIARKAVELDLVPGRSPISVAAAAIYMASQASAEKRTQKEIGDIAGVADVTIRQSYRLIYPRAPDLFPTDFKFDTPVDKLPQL


Experiments:
[1] = target: T1, TFIIB; test: BLI; details: BLI (ForteBio Octet QK), streptavidin sensors loaded with biotinylated DNA 25 ug/ml, 1x Kinetics Buffer (ForteBio); salt, pH and temperature not stated
[2] = target: TFIIB (UniProt Q00403 1-316); test: BLI; kon 3.03E+04 1/Ms; koff 1.93E-03 1/s; 270 nM TFIIB; BLI (ForteBio Octet QK), streptavidin sensors loaded with biotinylated DNA 25 ug/ml, 1x Kinetics Buffer (ForteBio); salt, pH and temperature not stated; details: protein: commercial; label: 5' biotin (one strand, PCR primer)

Molecule | Kd [1] | Kd [2]
AACGGTGCGCGTTAAAACGCCGACGCGTCATAACCGCGACTCGTCGACGCAGCGCCGGCGTATAAGCGCGCCGTACGTCAACCGTCGACGTTAGTCCGACGATCGCGGCGTCTATACGCCGCGTCAATCGCGCGCGGTTCAACGTCGCGCTACGGGCGCGTATAAGTCGCGCGGTTAATACGCGCGGTGTACGCGGATGCCGGGGTCGCGTATAATCGGCGCGTATACCTCGCGCGTATACGCGGCGTATTACGGCCGCGTATAATTCGCGCGTATGGACCGCGTACGTCCTACGAGCGT (double strand) [ArS300] | 64.6 nM | –
AACGGTGCGCGTTAAAACGGCCGACGCGTCATAACCGCGACTCGTCGACGCAGCGCCGGCGTATAAGCGCGCCGTACGTCAACCGTCGACGTTAGTCCGACGATCGCGGCGTCTATACGCCGCGTCAATCGCGCGCGGTTCAACGTCGCGCTACGGGCGCGTATAAGTCGCGCGTATGGACCGCGTACGTCCTACGAGCGT (double strand) [ArS201] | 77.6 nM | –
TCGACGCGCGTATAACACGCGAGCGGTTCGAACGTTGGCGCGCTAACGCGAGTCGTACGCCCGTCAACGCGGATCAATCGCGCGACTTGTGCGCGACGTTAGACCGCCGATCGTCAAGCGCCGATCGGTAATCGGACGATTCGGATACGCGAGTTCGGACGTACGAGCGTGATACGGCGCGTAACGGTGCGCGTTAAAACGCCGACGCGTCATAACCGCGACTCGTCGACGC (double strand) [ArS232] | 84.5 nM | –
ArS110 (dsDNA) DNA 1: CTACGCCGCGTAAATATCGCGCGCTAACGGTGCGCGTTAAAACGCCGACGCGTCATAAAGCGCCGGCGTATAAGCGCGCCGTACGTCGTCGAACCACGTTAGTCCGGACC DNA 2: GGTCCGGACTAACGTGGTTCGACGACGTACGGCGCGCTTATACGCCGGCGCTTTATGACGCGTCGGCGTTTTAACGCGCACCGTTAGCGCGCGATATTTACGCGGCGTAG | – | 63.7 nM
